Where a chain is given by its changes, count along the chain named. Where no end group is shown, it is not given here. GalNAc = O-linked GalNAc (Tn antigen, GalNAc-alpha1-O-Ser/Thr)

Experiment [1] concerns the target T1, CD44v6 glycopeptide … with O-linked GalNAc on threonine 5 and serine 12 (human).
T1 construct: Synthetic glycopeptide; also called CD44v6-Tn(S + T); Tn-glycosylated CD44v6 glycopeptide
T1 peptide: GYRQT(GalNAc)PKEDSHS(GalNAc)TTGTAAA
As to the kind of experiment: hybridoma screening (ELISA, flow cytometry, immunofluorescence). Background: An ELISA detects its analyte on a solid surface through an enzyme-linked reagent.

Experiment [2] deals with T2, CD44v6 peptide glycoform with Tn on serine only (human).
T2 construct: also called CD44v6-Tn(S)
T2 peptide: GYRQTPKEDSHS(GalNAc)TTGTAAA
Put plainly: BLI (Octet). (BLI is a label-free optical method that tracks binding on a fibre tip over time.)

Experiment [3] concerns the target T1, CD44v6 glycopeptide … with O-linked …. Put plainly: SPR (Biacore); Biacore, not Octet.
Experiment [4] has the same target. Put plainly: BLI (Octet), apparent affinity with avidity factored in.
In experiment [5] the target is T3, MUC1 glycopeptide (MUC1-Tn) (UniProt P15941 138-197, limits assumed, Tn (GalNAc) glycosylated; sites not stated in the examples). As to the kind of experiment: Biacore, column 'Affinity (Biacore)', row MUC1-Tn. (In general: In SPR one partner is held on a chip, and binding of the other changes the refractive index at the surface.)
In experiment [6] the target is Tn-glycosylated CD44 (human) (UniProt P16070). Put plainly: ELISA, antibody fixed at 1 ug/mL, coated antigen CD44_10-G(S1T1)-BSA titrated.
Experiment [7] has as its target T1, CD44v6 glycopeptide … with O-linked …. As to the kind of experiment: BLI (Octet); biotinylated peptide on biosensor, antibody in solution; Table 13 Octet run with the humanized candidates; 4C8-cAb (mouse) as reference. How it is done:
(§1) The affinities of humanized 4C8 candidates 1-8 against the CD44v6 glycopeptide and a MUC1 glycopeptide were measured using by bio-layer interferometry (BLI) using an Octet system. The peptides were immobilized onto the biosensor by biotin (ligand) and antibodies were in solution (analyte). Candidate 8(4C8-HV7-4-1-A/LV7-46-A) was most similar to the original […] antibody and was selected for further testing. Table 13 summarizes the dissociation constants (KD) for the noted humanized 4C8 candidates against the glycopeptides.

The target is the same in experiment [8]. As to the kind of experiment: BLI (Octet); biotinylated peptide on biosensor, antibody in solution. How it is done:
as §1

Experiment [9] deals with T3, MUC1 glycopeptide (MUC1-Tn). The experiment is described as above. How it is done:
as §1

T3 sequence (P15941 138-197 limits assumed): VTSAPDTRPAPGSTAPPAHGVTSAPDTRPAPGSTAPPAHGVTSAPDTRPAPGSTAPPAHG

B1: 10H4 antibody (antibody, V domains shown)
VH: QSLEESGGRLVTPGTPLTLTCTASGFTINTYHMGWFRQAPGKGLQYIGIVSHDVGTYYATWAKGRFTISKTSSTTVDLRMPSPTTEDTATYICARGPGYWTFNLWGQGTLVTVSS
VL: AQVLTQTPASVSAAVGGTVTINCQASQSVYNNNQLSWYQQKPGQPLKQLIYKASTLASGVPSRFKGSGSGSQFTLTISDLECDDAATYFCAGGYKGDIHPFGGGTEVVVK
notes: Rabbit monoclonal antibody
Turning to B1, in experiment [1], the binding result is given as “binds”.

B2: 4C8 monoclonal antibody (antibody, V domains shown)
VH: QVQLQQPGSELVRPGASVKLSCKASGYTFTSYWMHWVKQRPGQGLEWIGNIYPRSGTTNYDGYFKSKATLTVDTSSSTAYMQLSSLTSEDSAVYFCTRSGYDYPFVYWGQGTLVTVSA
VL: QAVVTQESALTTSPGETVTLTCRTSTGAVSIRNYANWVQEKPDHLFTGLIGGTNNRAPGVPARFSGSLIGDKAALTITGAQPEDEAIYFCALLYSNYWVFGGGTKLTVL
notes: Murine hybridoma antibody; also called 4C8 mAb; mAb 4C8
By EC50 (read off the curve) is commonly meant the concentration giving half of the maximal effect. Low values mean higher potency in that assay, high ones lower potency in that assay. Take B2: the Kd was 6.4 nM in experiment [2]; 128 nM in experiment [3]; 7.9 nM in experiment [4]; > 400 nM in experiment [5]; 163 nM in [7]. This molecule showed a concentration for a half-maximal effect (EC50 (read off the curve)) in experiment [6] of 0.02 µg/mL.

B3: 1D12 antibody (antibody, V domains shown)
VH: DVQLVESGGGLVQPGGSRKLSCAASGFTFSSFGIHWVRQAPEKGLEWVAYISSGSSTIYYADTVKGRFTISRDNPKNTLFLQMTSLRSEDTAMYYCARGSKVVAKSRGYWYFDVWGAGTTVTVSS
VL: DVVVTQTPLFLPVSFGDQVSISCRSSQSLANNYGITYLSWYLHRPGQSPQLLIYGISNRFSGVPDRFSGSGSGTDFTLKISTIKPEDLGMYYCLQGTHQPWTFGGGTKLEIK
notes: Murine monoclonal antibody
As to B3, the binding result in experiment [1] is recorded as “binds”.

B4: 18G9 antibody (antibody, V domains shown)
VH: DVQLVESGGGLVQPGGSRKLSCAASGFTFSSFGMHWVRQAPEKGLEWVAYISSGSSTIYYADTVKGRFTISRDNPKNTLFLQMTSLRSEDTAMYYCARGSYRAMDYWGQGTSVTVSS
VL: QIVLTQSPALMSASPGEKVTMTCSASSSVNYMFWYQQKPRSSPKPWIYLTSNLASGVPARFSGSGSGTSYSLTISSMEAEDAATYYCQLWSSNPFTFGSGTKLEIK
notes: Murine monoclonal antibody
Take B4: the binding result in experiment [1] is given as “binds”.

B5: humanized 4C8 candidate 2 (4C8-HV1-46-A/LV7-43-A) (antibody, V domains shown)
VH: QVQLVQSGAEVKKPGASVKVSCKASGYTFTSYWMHWVRQAPGQGLEWIGNIYPRSGTTNYDGYFKSRATLTVDTSTSTAYMELSSLRSEDTAVYFCTRSGYDYPFVYWGQGTLVTVSS
VL: QAVVTQEPSLTVSPGGTVTLTCRTSTGAVSIRNYANWVQEKPGQAFRGLIGGTNNRAPWTPARFSGSLLGDKAALTLSGVQPEDEAEYFCALLYSNYWVFGGGTKLTVL
notes: also called Molecule Number 2
The molecule B5 displayed a Kd in experiment [8] of 194 nM.

B6: humanized 4C8 candidate 7 (4C8-HV1-69-A/LV7-46-A) (antibody, V domains shown)
VH: B5 VH with A16S
VL: B5 VL with V80A
notes: also called Molecule Number 7
Take B6: in experiment [8], the Kd is 183 nM. Further, the binding result in experiment [9] is “no binding (tested: affinity was below the detection limits)”. The 50% effective concentration (EC50 (read off the curve)) in [6] stood at 0.02 µg/mL.

B7: humanized 4C8 candidate 1 (4C8-HV1-18-A/LV7-43-A) (antibody, V domains shown)
VH: B5 VH with S84R, E89D
VL: B5 VL
notes: also called Molecule Number 1
As for B7, the Kd in [8] worked out at 191 nM. Also, the EC50 (read off the curve) in [6] worked out at 0.02 µg/mL.

B8: humanized 4C8 candidate 3 (4C8-HV1-69-A/LV7-43-A) (antibody, V domains shown)
VH: B5 VH with A16S
VL: B5 VL
notes: also called Molecule Number 3
In experiment [8], B8 yielded a Kd of 161 nM.

B9: humanized 4C8 candidate 5 (4C8-HV1-18-A/LV7-46-A) (antibody, V domains shown)
VH: B5 VH with S84R, E89D
VL: B5 VL with V80A
notes: also called Molecule Number 5
B9 registered a Kd in experiment [8] of 177 nM.

B10: humanized 4C8 candidate 6 (4C8-HV1-46-A/LV7-46-A) (antibody, V domains shown)
VH: B5 VH
VL: B5 VL with V80A
notes: also called Molecule Number 6
With B10, in experiment [8], the Kd stood at 169 nM. The binding result in experiment [9] is recorded as “no binding (tested: affinity was below the detection limits)”.

B11: 2B2 antibody (antibody, V domains shown)
VH: EVQLVESGGGLVKPGGSLKLSCAASGFTFSSYAMSWVRQSPERRLEWVAEISSGGSYTYYPDTVTGRFTISRDNAKNTLYLEMSSLRSEDTAMYYCARTVGEDWYFDVWGAGTTVTVSS
VL: DIQMTQTTSSLSASLGDRVTISCRASQDISHYLNWYQQKPDGAVKLLIYSTSRLHSGVPSRFSGSGSGTDYSLTISNLEQEDIATYFCQQGYTLPFTFGSGTKLEIK
notes: Murine monoclonal antibody
B11: the binding result in [1] is reported as “binds”.

The values above are taken from patent US20250326855A1 (GO THERAPEUTICS, published 2025).
